Measured values published in patent US20240218342A1, “SITE-SPECIFIC GLYCAN REMODELING OF LYSOSOMAL ENZYMES AND APPLICATIONS THEREOF” (priority 2021, published 2024).

Target: Recombinant human IGF-II R (CI-MPR) (Homo sapiens, UniProt P11717)
Assay: SPR binding to immobilized CI-MPR
Settings: 25° C., three independent experiments
Protocol: Surface Plasmon Resonance (SPR) Measurements. SPR measurements were performed on a Biacore T200 instrument (GE Healthcare). Recombinant human IGF-II R (CI-MPR) was purchased from R&D Systems. Approximately 7000 resonance units (RU) of CI-MPR was immobilized on a CM5 sensor chip in a sodium acetate buffer (25 μg/mL, pH 4.0) at 25° C., using the amine coupling kit provided by the manufacturer. Mannose 6-phosphates containing glycopeptides or glycoproteins were determined at 25° C. under a flow rate of 10 μL/min. HBS-P+ buffer (10 mM HEPES, 150 mM NaCl, 0.05% surfactant P20, pH 7.4) was used as sample buffer and running buffer. Association was measured for 3 min and dissociation for 10 min at the same flow rate (10 μL/min). […] Synthetic glycopeptide and glycoprotein analytes flowed over an immobilized chip with 2-fold serial dilution of the highest concentration of 4 μM (for glycopeptides) or 1 μM (for RNase B) or 250 nM (for rhGAA). Kinetic analyses were performed by global fitting of the binding data to a 1:1 Langmuir binding model using BIAcore T200 evaluation software.

Recombinant human IGF-II R (CI-MPR), sequence (P11717 41-2491): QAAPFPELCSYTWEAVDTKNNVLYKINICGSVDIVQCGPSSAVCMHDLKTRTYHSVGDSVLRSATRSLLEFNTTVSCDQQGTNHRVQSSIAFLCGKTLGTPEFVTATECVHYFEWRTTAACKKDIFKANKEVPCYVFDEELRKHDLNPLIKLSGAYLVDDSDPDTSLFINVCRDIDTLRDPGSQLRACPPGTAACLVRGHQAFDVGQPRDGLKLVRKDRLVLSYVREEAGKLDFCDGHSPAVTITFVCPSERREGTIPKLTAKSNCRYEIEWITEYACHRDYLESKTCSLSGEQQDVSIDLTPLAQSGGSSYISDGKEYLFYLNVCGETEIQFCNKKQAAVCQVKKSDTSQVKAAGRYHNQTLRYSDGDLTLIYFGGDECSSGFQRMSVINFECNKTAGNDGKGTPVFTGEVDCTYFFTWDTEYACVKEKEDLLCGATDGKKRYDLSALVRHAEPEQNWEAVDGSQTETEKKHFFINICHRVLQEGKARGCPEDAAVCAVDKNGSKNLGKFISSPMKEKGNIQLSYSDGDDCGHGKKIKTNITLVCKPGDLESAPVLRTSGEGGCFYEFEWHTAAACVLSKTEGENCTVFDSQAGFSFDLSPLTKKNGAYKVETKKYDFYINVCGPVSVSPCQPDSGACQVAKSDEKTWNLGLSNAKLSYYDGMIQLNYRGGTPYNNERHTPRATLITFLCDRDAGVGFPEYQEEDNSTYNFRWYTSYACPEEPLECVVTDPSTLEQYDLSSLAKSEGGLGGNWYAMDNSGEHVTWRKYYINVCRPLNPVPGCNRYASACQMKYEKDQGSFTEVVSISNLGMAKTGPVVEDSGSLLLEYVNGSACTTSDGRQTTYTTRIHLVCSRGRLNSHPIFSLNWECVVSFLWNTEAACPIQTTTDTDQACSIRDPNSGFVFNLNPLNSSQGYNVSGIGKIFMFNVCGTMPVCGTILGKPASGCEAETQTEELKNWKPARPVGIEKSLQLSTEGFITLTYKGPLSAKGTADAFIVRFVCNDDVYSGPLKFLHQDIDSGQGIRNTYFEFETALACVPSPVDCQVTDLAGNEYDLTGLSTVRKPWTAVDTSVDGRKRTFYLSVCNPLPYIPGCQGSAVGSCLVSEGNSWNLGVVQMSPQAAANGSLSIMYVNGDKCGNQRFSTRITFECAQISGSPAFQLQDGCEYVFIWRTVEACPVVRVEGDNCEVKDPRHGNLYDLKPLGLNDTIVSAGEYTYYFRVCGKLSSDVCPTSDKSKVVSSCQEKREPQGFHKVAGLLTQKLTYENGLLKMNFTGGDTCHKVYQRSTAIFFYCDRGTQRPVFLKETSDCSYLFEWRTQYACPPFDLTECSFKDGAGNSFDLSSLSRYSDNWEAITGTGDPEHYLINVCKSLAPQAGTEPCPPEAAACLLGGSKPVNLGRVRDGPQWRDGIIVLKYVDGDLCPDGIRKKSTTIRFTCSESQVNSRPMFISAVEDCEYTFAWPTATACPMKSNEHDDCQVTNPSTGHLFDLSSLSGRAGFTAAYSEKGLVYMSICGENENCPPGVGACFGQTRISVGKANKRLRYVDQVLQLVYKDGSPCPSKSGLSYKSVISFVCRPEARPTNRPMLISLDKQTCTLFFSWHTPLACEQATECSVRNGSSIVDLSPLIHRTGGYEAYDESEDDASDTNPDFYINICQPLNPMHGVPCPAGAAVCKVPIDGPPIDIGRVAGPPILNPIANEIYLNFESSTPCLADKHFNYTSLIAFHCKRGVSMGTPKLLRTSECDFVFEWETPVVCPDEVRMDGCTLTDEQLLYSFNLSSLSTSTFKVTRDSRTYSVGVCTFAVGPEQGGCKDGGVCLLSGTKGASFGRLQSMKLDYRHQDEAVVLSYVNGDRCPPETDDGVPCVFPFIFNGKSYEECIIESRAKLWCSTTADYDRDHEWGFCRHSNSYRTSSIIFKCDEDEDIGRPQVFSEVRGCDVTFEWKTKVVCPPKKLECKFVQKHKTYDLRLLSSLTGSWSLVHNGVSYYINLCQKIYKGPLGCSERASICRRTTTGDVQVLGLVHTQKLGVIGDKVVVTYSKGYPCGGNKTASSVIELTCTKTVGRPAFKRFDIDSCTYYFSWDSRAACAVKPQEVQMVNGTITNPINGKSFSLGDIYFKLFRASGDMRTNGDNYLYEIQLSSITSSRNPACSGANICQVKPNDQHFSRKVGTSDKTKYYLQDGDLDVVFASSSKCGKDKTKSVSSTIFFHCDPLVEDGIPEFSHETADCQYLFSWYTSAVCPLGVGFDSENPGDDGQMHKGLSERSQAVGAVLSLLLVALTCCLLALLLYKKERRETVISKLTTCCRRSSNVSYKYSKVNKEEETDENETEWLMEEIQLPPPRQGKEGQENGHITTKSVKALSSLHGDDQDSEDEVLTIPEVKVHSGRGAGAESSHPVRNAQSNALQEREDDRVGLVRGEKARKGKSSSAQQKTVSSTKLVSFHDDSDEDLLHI

Kd: 15.8 nM
B1: Glycoprotein 68: phosphorylated glycoprotein from GlcNAc-RNase B and oxazoline 8 under wild-type Endo-A catalysis (protein)
chain: KETAAAKFERQHMDSSTSAASSSNYCNQMMKSRNLTKDRCKPVNTFVHESLADVQAVCSQKNVACKNGQTNCYQSYSTMSITDCRETGSSKYPNCAYKTTQANKHIIVACEGNPYVPVHFDASV
modifications: Asn-34 carries GlcNAc extended with M6P tetrasaccharide oxazoline 8 (Man6P-α1,2-Man-α1,3-Man-β1,4-GlcNAc)
